This experiment deals with acetylcholine receptor (Homo sapiens, UniProt P02708). The experiment is described as follows: SPR binding affinity (RU) of optimized 5mer/6mer/7mer peptides, Examples 6-7. Conditions: SPR, Resonance Units, peptides tested at 10 μM. The method, boiled down:
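Single-concentration screen: 10 μM peptide, SPR detection, binding expressed as RU.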
A general note: SPR reads the build-up and loss of mass on a sensor chip optically.

Chain of acetylcholine receptor (P02708 21-457): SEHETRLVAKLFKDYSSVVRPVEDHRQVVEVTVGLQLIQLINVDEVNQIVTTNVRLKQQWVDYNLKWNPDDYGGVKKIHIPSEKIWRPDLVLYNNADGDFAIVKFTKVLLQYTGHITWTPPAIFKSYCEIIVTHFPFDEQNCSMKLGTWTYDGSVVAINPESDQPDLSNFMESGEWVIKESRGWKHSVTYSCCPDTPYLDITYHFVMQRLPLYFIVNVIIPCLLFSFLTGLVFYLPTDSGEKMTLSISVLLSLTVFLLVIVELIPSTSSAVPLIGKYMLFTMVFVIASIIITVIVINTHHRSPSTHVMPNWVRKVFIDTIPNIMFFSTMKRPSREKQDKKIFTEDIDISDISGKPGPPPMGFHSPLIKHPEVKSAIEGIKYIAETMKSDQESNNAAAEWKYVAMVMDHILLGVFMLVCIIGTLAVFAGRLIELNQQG

6mer-2-379 (RGVQKR): the Binding affinity (6mer-2 Top sequence (Table 12)) turned out to be 127 Ru. In the case of 6mer-2-380 (RLVYRK), the Binding affinity (6mer-2 Top sequence (Table 12)) stood at 141 Ru. On to 6mer-2-381 (KVYRRR), for which the Binding affinity (6mer-2 Top sequence (Table 12)) worked out at 139 Ru. Still for that read-out and setting: next, 6mer-2-382 (KSVSRR): 148 Ru. 6mer-2-383 (KLVRRK): the Binding affinity (6mer-2 Top sequence (Table 12)) turned out to be 128 Ru. On the same count and under the same terms, next, 6mer-2-384 (RSFQKK): 142 Ru; 6mer-2-385 (RGVCKR): 154 Ru; 6mer-2-386 (KWQSKR): 136 Ru. As to 6mer-2-387 (KWLCKK), for the setting “6mer-2 Top sequence (Table 12)”, the Binding affinity was found to be 146 Ru. On to 6mer-2-388 (KRFQKK), for which, for the setting “6mer-2 Top sequence (Table 12)”, the Binding affinity amounted to 139 Ru.

As to 6mer-2-389 (KSLYKK), for the setting “6mer-2 Top sequence (Table 12)”, the Binding affinity was 153 Ru. The same measure, in the same setting: to 6mer-2-390 (KWLRRR) belongs 145 Ru; to 6mer-2-391 (KQYQKR), 141 Ru; to 6mer-2-392 (RQILKR), 149 Ru.

As to 6mer-2-393 (RGLQRK), the Binding affinity (6mer-2 Top sequence (Table 12)) stood at 145 Ru. Same read-out and setting: next, 6mer-2-394 (KLVLKR): 141 Ru; 6mer-2-395 (KWRYRR): 148 Ru; 6mer-2-396 (KWLQRR): 122 Ru.

On to 6mer-2-397 (RSIYRK), for which, for the setting “6mer-2 Top sequence (Table 12)”, the Binding affinity was determined as 154 Ru. On to 6mer-2-398 (RQQRRR), for which the Binding affinity (6mer-2 Top sequence (Table 12)) was 141 Ru.

Take 6mer-2-399 (RWLTRR): where the note is “6mer-2 Top sequence (Table 12)”, the Binding affinity was determined as 148 Ru. On the same count and under the same terms, to 6mer-2-400 (RQIRRR) belongs 154 Ru. Take 6mer-2-401 (RSILRK): the Binding affinity (6mer-2 Top sequence (Table 12)) is 153 Ru. The same measure, in the same setting: next, 6mer-2-402 (KRYSRR): 145 Ru. For the substance 6mer-2-403 (KGVLRK), the Binding affinity (6mer-2 Top sequence) is given as 123 Ru.

6mer-2-404 (RVLSKR): the Binding affinity (6mer-2 Top sequence) stood at 121 Ru. Regarding 6mer-2-405 (KGYRKK), the Binding affinity (6mer-2 Top sequence) came out at 137 Ru.

Regarding 6mer-2-406 (KGIYRR), under “6mer-2 Top sequence”, the Binding affinity is recorded as 139 Ru. Still for that read-out and setting: to 6mer-2-407 (KQVSKR) belongs 122 Ru; to 6mer-2-408 (KQIYRR), 139 Ru. On the same count and under the same terms, next, 6mer-2-409 (KRRRKR): 139 Ru.

With 6mer-2-410 (KRFRKK), the Binding affinity (6mer-2 Top sequence) stood at 153 Ru. Same read-out and setting: to 6mer-2-411 (RSRQKK) belongs 121 Ru; to 6mer-2-412 (KRFLKK), 139 Ru; to 6mer-2-413 (RLILKR), 136 Ru. Regarding 6mer-2-414 (KWRQKK), the Binding affinity (6mer-2 Top sequence) was 135 Ru. For the substance 6mer-2-415 (KGRCKK), the Binding affinity (6mer-2 Top sequence) is listed as 149 Ru. As to 6mer-2-416 (RWRLRR), the Binding affinity (6mer-2 Top sequence) is given as 131 Ru. The same measure, in the same setting: next, 6mer-2-417 (RWVYKK): 151 Ru; 6mer-2-418 (RVQYKK): 121 Ru. On the same count and under the same terms, to 6mer-2-419 (RSRYKK) belongs 154 Ru; to 6mer-2-420 (RRQYRK), 128 Ru. Same read-out and setting: to 6mer-2-421 (KVICRK) belongs 124 Ru. As to 6mer-2-422 (RLITRR), the Binding affinity (6mer-2 Top sequence) was 154 Ru. Consider 6mer-2-423 (RLQYRK), for which, under “6mer-2 Top sequence”, the Binding affinity came out at 154 Ru. For 6mer-2-424 (RLYCKK), the Binding affinity (6mer-2 Top sequence) came out at 139 Ru. As for 6mer-2-425 (KLQTKK), under “6mer-2 Top sequence”, the Binding affinity came to 145 Ru.

In the case of 6mer-2-426 (KGQRRK), the Binding affinity (6mer-2 Top sequence) was 141 Ru.

For the substance 6mer-2-427 (RLQRRR), the Binding affinity (6mer-2 Top sequence) turned out to be 147 Ru. Still for that read-out and setting: to 6mer-2-428 (KVFLKK) belongs 142 Ru; to 6mer-2-429 (RWRQRK), 123 Ru.

Take 6mer-2-430 (RWFRRR): the Binding affinity (6mer-2 Top sequence) worked out at 139 Ru. Still for that read-out and setting: next, 6mer-2-431 (KLILKR): 135 Ru. Still for that read-out and setting: next, 6mer-2-432 (KVVRKR): 148 Ru. The same measure, in the same setting: to 6mer-2-433 (RWIQKR) belongs 139 Ru; to 6mer-2-434 (RVIRRK), 154 Ru.

With 6mer-2-435 (RWVYKR), the Binding affinity (6mer-2 Top sequence) is recorded as 154 Ru. On the same count and under the same terms, to 6mer-2-436 (KVLYKR) belongs 148 Ru. On the same count and under the same terms, to 6mer-2-437 (KQVCKK) belongs 121 Ru.

Turning to 6mer-2-438 (RLLCRK), for the setting “6mer-2 Top sequence”, the Binding affinity is on record as 131 Ru. Regarding 6mer-2-439 (KWFSKR), for the setting “6mer-2 Top sequence”, the Binding affinity was 153 Ru. Turning to 6mer-2-440 (KQLSKK), the Binding affinity (6mer-2 Top sequence) is given as 153 Ru. On the same count and under the same terms, to 6mer-2-441 (KSQRKR) belongs 139 Ru; to 6mer-2-442 (RLVQKR), 139 Ru. Take 6mer-2-443 (RQYCRR): where the note is “6mer-2 Top sequence”, the Binding affinity is recorded as 122 Ru. Same read-out and setting: to 6mer-2-444 (RQRLKK) belongs 141 Ru; to 6mer-2-445 (RLVCKR), 145 Ru; to 6mer-2-446 (RQLQKK), 153 Ru. Same read-out and setting: to 6mer-2-447 (RVYTKK) belongs 139 Ru. In the case of 6mer-2-448 (RSFRRR), under “6mer-2 Top sequence”, the Binding affinity was found to be 128 Ru. For the substance 6mer-2-449 (RGRCRR), the Binding affinity (6mer-2 Top sequence) is given as 154 Ru. 6mer-2-450 (RQRYRK): for the setting “6mer-2 Top sequence”, the Binding affinity was found to be 123 Ru.

For the substance 6mer-2-451 (RGRCKK), where the note is “6mer-2 Top sequence”, the Binding affinity is on record as 148 Ru. The same measure, in the same setting: to 6mer-2-452 (KGLYKR) belongs 146 Ru; to 6mer-2-453 (RLVRKK), 141 Ru; to 6mer-2-454 (RSVQKK), 133 Ru. In the case of 6mer-2-455 (RWYSKR), under “6mer-2 Top sequence”, the Binding affinity came out at 135 Ru. As to 6mer-2-456 (KSVTKR), the Binding affinity (6mer-2 Top sequence) is 147 Ru. As for 6mer-2-457 (RRVYKR), the Binding affinity (6mer-2 Top sequence) was determined as 146 Ru. On the same count and under the same terms, to 6mer-2-458 (RRFQRR) belongs 122 Ru; to 6mer-2-459 (KLFSRK), 139 Ru; to 6mer-2-460 (RSQCRK), 139 Ru. Still for that read-out and setting: to 6mer-2-461 (KSVCRR) belongs 149 Ru; to 6mer-2-462 (KQICKR), 145 Ru. 6mer-2-463 (KLLTRR): for the setting “6mer-2 Top sequence”, the Binding affinity is 124 Ru. On to 6mer-2-464 (KSFRKK), for which, for the setting “6mer-2 Top sequence”, the Binding affinity is on record as 135 Ru. Take 6mer-2-465 (KGVSKR): the Binding affinity (6mer-2 Top sequence) is reported as 122 Ru. The same measure, in the same setting: next, 6mer-2-466 (RLLTRR): 142 Ru; 6mer-2-467 (KQYSRR): 142 Ru. Same read-out and setting: next, 6mer-2-468 (RSFSKR): 133 Ru; 6mer-2-469 (RLRTKK): 153 Ru.

6mer-2-470 (RLRRRK): the Binding affinity (6mer-2 Top sequence) was found to be 153 Ru. On the same count and under the same terms, next, 6mer-2-471 (KWISRR): 136 Ru; 6mer-2-472 (RSRLRR): 148 Ru; 6mer-2-473 (RGRLRK): 131 Ru. Same read-out and setting: to 6mer-2-474 (RWQQRR) belongs 128 Ru; to 6mer-2-475 (KRFCRR), 139 Ru; to 6mer-2-476 (KGIRKK), 148 Ru.

As for 6mer-2-477 (RSRTRR), where the note is “6mer-2 Top sequence”, the Binding affinity is given as 135 Ru. 6mer-2-478 (KWYTRK): for the setting “6mer-2 Top sequence”, the Binding affinity is 145 Ru. Consider 6mer-2-479 (KWRLKK), for which the Binding affinity (6mer-2 Top sequence) turned out to be 154 Ru. The same measure, in the same setting: next, 6mer-2-480 (RRFTKK): 147 Ru. Same read-out and setting: to 6mer-2-481 (RQRYKK) belongs 131 Ru.

For the substance 6mer-2-482 (KGQTRR), the Binding affinity (6mer-2 Top sequence) is 154 Ru. The same measure, in the same setting: next, 6mer-2-483 (RRYLKK): 121 Ru.

Consider 6mer-2-484 (RWYTKR), for which the Binding affinity (6mer-2 Top sequence) stood at 148 Ru. Still for that read-out and setting: next, 6mer-2-485 (RQIQKR): 148 Ru; 6mer-2-486 (KQQSKK): 121 Ru. In the case of 6mer-2-487 (KSYTKR), the Binding affinity (6mer-2 Top sequence) was determined as 121 Ru.

With 6mer-2-488 (KVYRRK), under “6mer-2 Top sequence”, the Binding affinity is listed as 146 Ru. As to 6mer-2-489 (RVISKK), the Binding affinity (6mer-2 Top sequence) was 142 Ru. Take 6mer-2-490 (RRYQKK): the Binding affinity (6mer-2 Top sequence) came out at 145 Ru. Turning to 6mer-2-491 (KRICKR), the Binding affinity (6mer-2 Top sequence) is reported as 135 Ru.

With 6mer-2-492 (RLIQKK), the Binding affinity (6mer-2 Top sequence) is on record as 148 Ru. Still for that read-out and setting: to 6mer-2-493 (KGVRRK) belongs 123 Ru. In the case of 6mer-2-494 (KGLLRR), the Binding affinity (6mer-2 Top sequence) was determined as 144 Ru. For the substance 6mer-2-495 (KLLCKK), under “6mer-2 Top sequence”, the Binding affinity was 121 Ru. For 6mer-2-496 (RVRYRK), the Binding affinity (6mer-2 Top sequence) is recorded as 144 Ru.

Take 6mer-2-497 (KSYTRR): the Binding affinity (6mer-2 Top sequence) is 148 Ru. On the same count and under the same terms, to 6mer-2-498 (KGLCRR) belongs 127 Ru; to 6mer-2-499 (RLFTKR), 145 Ru. Same read-out and setting: to 6mer-2-500 (KRICRR) belongs 146 Ru. Same read-out and setting: next, 6mer-2-501 (KSYSKK): 144 Ru; 6mer-2-502 (KSFCKR): 144 Ru. For the substance 6mer-2-503 (KVQTKK), where the note is “6mer-2 Top sequence”, the Binding affinity is given as 154 Ru. Still for that read-out and setting: to 6mer-2-504 (RGLTRK) belongs 154 Ru; to 6mer-2-505 (KRQCKK), 148 Ru.

Turning to 6mer-2-506 (KSLLKK), the Binding affinity (6mer-2 Top sequence) is given as 135 Ru. Still for that read-out and setting: next, 6mer-2-507 (RGICKR): 145 Ru; 6mer-2-508 (RVFLKK): 121 Ru; 6mer-2-509 (RGFYRK): 136 Ru.

For the origin of these results see US20250011363A1, “OPTIMIZED SHORTENED PEPTIDE THAT BINDS TO ACETYLCHOLINE RECEPTOR, AND USE THEREOF” (SKINMED CO., LTD., priority 2021, published 2025).
